The values below come from patent publication US20090311271A1.

Test [1] addresses human LOX-1 expressed on the cell surface (human) (UniProt P78380). Put plainly: flow cytometry: DI-oxLDL (0-100 ug/ml) on CHO/LOX-1 cells, 60 min at 4 C, MFI. A general note: A flow cytometer gives signals particle by particle.
The target of test [2] is purified recombinant human LOX1 comprised of the extracellular domain (ECD) of human LOX-1 (amino acids 61-273) with an N-terminal polyhistidine tag (human) (UniProt P78380). Put plainly: AlphaScreen competition on His-LOX-1, unlabelled competitor titrated; labelled ligand biotin-CRP (1 ug/ml) with His-LOX-1 (1 ug/ml) by the panel list of paragraph 265; later sentences of paragraph 265 cite 2B and 2C the other way and the sheet prints no title.

Test [3] deals with human LOX-1 expressed on the cell surface (human) (UniProt P78380). As to the kind of experiment: flow cytometry, DI-oxLDL on CHO/LOX-1 cells.
The target is the same in test [4]. Put plainly: flow cytometry: DI-oxLDL (0-100 ug/ml) on CHO/LOX-1 cells, 60 min at 4 C; y axis MFI Signal.

With Human oxidized LDL, the Kd in test [1] and in test [3] was 22 µg/mL in each case. The IC50 (read off the curve) in test [2] is 0.2 µg/mL. Besides, the Bmax in test [4] was 96.6.
